Target: MRAS wild type, recombinant from E. coli (human) (UniProt O14807)
Assay: ITC

Kd: 8.3 µM
Substance: BRAF-RBD (from UniProt P15056 150-233) (domain or fragment)

From paper PMC11733253
